First the molecules themselves.
T1: EsCas13d, nuclease-dead (Eubacterium siraeum, UniProt B0MS50, R295A;H300A;R849A;H854A)
T1 sequence: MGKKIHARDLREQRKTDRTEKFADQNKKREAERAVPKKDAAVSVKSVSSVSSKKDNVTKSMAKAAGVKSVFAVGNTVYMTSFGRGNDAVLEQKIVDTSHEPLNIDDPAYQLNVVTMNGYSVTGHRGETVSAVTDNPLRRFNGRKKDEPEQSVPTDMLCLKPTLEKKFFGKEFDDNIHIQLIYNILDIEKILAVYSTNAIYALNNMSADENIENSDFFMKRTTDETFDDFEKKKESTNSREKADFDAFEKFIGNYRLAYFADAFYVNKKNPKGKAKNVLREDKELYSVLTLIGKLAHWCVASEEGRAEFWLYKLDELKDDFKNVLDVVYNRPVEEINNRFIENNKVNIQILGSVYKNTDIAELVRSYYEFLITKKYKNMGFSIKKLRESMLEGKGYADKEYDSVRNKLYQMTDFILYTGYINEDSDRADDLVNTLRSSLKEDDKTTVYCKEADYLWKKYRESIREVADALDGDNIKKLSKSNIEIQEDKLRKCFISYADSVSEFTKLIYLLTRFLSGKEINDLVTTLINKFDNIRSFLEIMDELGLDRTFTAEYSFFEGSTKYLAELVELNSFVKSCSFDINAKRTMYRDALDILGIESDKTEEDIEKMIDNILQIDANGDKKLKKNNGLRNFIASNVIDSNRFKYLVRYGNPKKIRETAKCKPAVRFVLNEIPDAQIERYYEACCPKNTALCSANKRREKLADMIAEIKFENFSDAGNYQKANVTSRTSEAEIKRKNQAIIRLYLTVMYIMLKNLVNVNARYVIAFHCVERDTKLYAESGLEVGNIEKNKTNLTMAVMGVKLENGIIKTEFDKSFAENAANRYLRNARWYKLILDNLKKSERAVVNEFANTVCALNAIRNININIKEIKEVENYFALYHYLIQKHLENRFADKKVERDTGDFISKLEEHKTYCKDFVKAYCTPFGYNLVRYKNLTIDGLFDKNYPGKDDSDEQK

B1: target 1 A9G,G17U (mixed)
RNA 1: CACCCGUGCAAAAAUGCAGGGGUCUAAAACUGAGCGGAUAACCUCUCUAUGG
RNA 2: GGGAAUGGAUCCACAUCUACGAAUUCGUACCAUAUAGAGGUUGUCCGCUCACCGAGAUCGGAAGAGCACACGU
B2: target 1 A1G,U3G (mixed)
RNA 1: CACCCGUGCAAAAAUGCAGGGGUCUAAAACUGAGCGGAUAACCUCUCUAUGG
RNA 2: GGGAAUGGAUCCACAUCUACGAAUUCGUACCAUAGAGAGGUUAUCCGCGCGCCGAGAUCGGAAGAGCACACGU
B3: target 1 insG 3' of 18 (mixed)
RNA 1: CACCCGUGCAAAAAUGCAGGGGUCUAAAACUGAGCGGAUAACCUCUCUAUGG
RNA 2: GGGAAUGGAUCCACAUCUACGAAUUCGUACCAUAGGAGAGGUUAUCCGCUCACCGAGAUCGGAAGAGCACACGU
B4: target 1 G12U,G15U (mixed)
RNA 1: CACCCGUGCAAAAAUGCAGGGGUCUAAAACUGAGCGGAUAACCUCUCUAUGG
RNA 2: GGGAAUGGAUCCACAUCUACGAAUUCGUACCAUAGAUAGUUUAUCCGCUCACCGAGAUCGGAAGAGCACACGU
B5: target 1 U3A,C4U (mixed)
RNA 1: CACCCGUGCAAAAAUGCAGGGGUCUAAAACUGAGCGGAUAACCUCUCUAUGG
RNA 2: GGGAAUGGAUCCACAUCUACGAAUUCGUACCAUAGAGAGGUUAUCCGUACACCGAGAUCGGAAGAGCACACGU
B6: target 1 del9,del18 (mixed)
RNA 1: CACCCGUGCAAAAAUGCAGGGGUCUAAAACUGAGCGGAUAACCUCUCUAUGG
RNA 2: GGGAAUGGAUCCACAUCUACGAAUUCGUACCAUGAGAGGUUUCCGCUCACCGAGAUCGGAAGAGCACACGU
B7: target 1 A1C,U3G (mixed)
RNA 1: CACCCGUGCAAAAAUGCAGGGGUCUAAAACUGAGCGGAUAACCUCUCUAUGG
RNA 2: GGGAAUGGAUCCACAUCUACGAAUUCGUACCAUAGAGAGGUUAUCCGCGCCCCGAGAUCGGAAGAGCACACGU
B8: target 1 U11G,C22U (mixed)
RNA 1: CACCCGUGCAAAAAUGCAGGGGUCUAAAACUGAGCGGAUAACCUCUCUAUGG
RNA 2: GGGAAUGGAUCCACAUCUACGAAUUCGUAUCAUAGAGAGGGUAUCCGCUCACCGAGAUCGGAAGAGCACACGU
B9: target 1 insU 3' of 18,insC 3' of 3 (mixed)
RNA 1: CACCCGUGCAAAAAUGCAGGGGUCUAAAACUGAGCGGAUAACCUCUCUAUGG
RNA 2: GGGAAUGGAUCCACAUCUACGAAUUCGUACCAUAUGAGAGGUUAUCCGCUCCACCGAGAUCGGAAGAGCACACGU
B10: target 1 insA 3' of 11,insA 3' of 11 (mixed)
RNA 1: CACCCGUGCAAAAAUGCAGGGGUCUAAAACUGAGCGGAUAACCUCUCUAUGG
RNA 2: GGGAAUGGAUCCACAUCUACGAAUUCGUACCAUAGAGAGGUAAUAUCCGCUCACCGAGAUCGGAAGAGCACACGU
B11: target 1 insA 3' of 21,insA 3' of 7 (mixed)
RNA 1: CACCCGUGCAAAAAUGCAGGGGUCUAAAACUGAGCGGAUAACCUCUCUAUGG
RNA 2: GGGAAUGGAUCCACAUCUACGAAUUCGUACCAAUAGAGAGGUUAUCACGCUCACCGAGAUCGGAAGAGCACACGU
B12: target 1 C6U,A18U (mixed)
RNA 1: CACCCGUGCAAAAAUGCAGGGGUCUAAAACUGAGCGGAUAACCUCUCUAUGG
RNA 2: GGGAAUGGAUCCACAUCUACGAAUUCGUACCAUUGAGAGGUUAUCUGCUCACCGAGAUCGGAAGAGCACACGU
B13: target 1 U3G (mixed)
RNA 1: CACCCGUGCAAAAAUGCAGGGGUCUAAAACUGAGCGGAUAACCUCUCUAUGG
RNA 2: GGGAAUGGAUCCACAUCUACGAAUUCGUACCAUAGAGAGGUUAUCCGCGCACCGAGAUCGGAAGAGCACACGU

By Kd is commonly meant the constant that tells how readily two partners part at equilibrium. A higher Kd goes with lower affinity.

The series concerns the target T1, EsCas13d, nuclease-dead. Briefly: crRNA (strand 1, pre-loaded); Mg2+; 40 mM Tris-HCl pH 7.5, 150 mM NaCl, 6 mM MgCl2, 1 mM DTT, 0.1% Tween-20, 0.2 mg/ml BSA; 25 C; 10 min per concentration, then washed. The note with it: tags: His6-TwinStrep-SUMO cleaved; N-terminal SNAP kept (SNAP-Surface 488); label: 3' end held by stalled T7 RNA polymerase.
Regarding B1, the Kd worked out at 35 ± 6 nM. For B2 the value was 3.35 ± 0.12 nM. On to B3, for which binding was characterised by a dissociation constant (Kd) of 48 ± 5 nM. For B4 the value was 23.3 ± 1.8 nM; for B5, 37 ± 5 nM. B6 gave a Kd of 100 ± 50 nM. With B7, the affinity, expressed as Kd, was 46 ± 7 nM. Under B8 stands 42 ± 7 nM; under B9, 28 ± 4 nM; under B10, 8.6 ± 0.5 nM. Under B11 stands 12.6 ± 0.8 nM; under B12, 25.8 ± 2 nM; under B13, 11.3 ± 1.3 nM.

These data come from PMC10786891, “Massively parallel profiling of RNA-targeting CRISPR-Cas13d”.
